Source: paper PMC11040352 (2024)
Starred links: 1 amine or outer side, 2 acyl side, 3 side chain; linkers in the order of their positions; H or OH if unused. Positions of bridges follow the written chain, without caps; N, C: chain ends. Primed or numbered codes have the meaning given here. *: point of attachment. NOTA = O=C(O)CN1CCN(CC(=O)O)CCN(CC(=O)*)CC1; TBMB = c1c(C[*:1])cc(C[*:3])cc1C[*:2]; PEG3′ = not defined here

Target: His-Tagged human CD38 (recombinant) (human, UniProt P28907 1-300)
Assay: SPR

B1: AJ206 (peptide)
peptide: {NOTA-PEG3′}-ACVPCADFPIWYC-NH2
modifications: linker 2-5-13 via TBMB (inferred)
B1 showed a koff of 0.0006 s⁻¹.
